Experimental data from publication PMC13345634, “Dynamic assembly of malate dehydrogenase–citrate synthase multienzyme complex in the mitochondria” (eLife, 2026).

T1: recombinant MDH1 (without the mitochondrial targeting signal, C-terminal 6x His tag), fluorescently labeled (S. cerevisiae, UniProt P17505 18-334, fluorescent label (Protein Labeling Kit RED-NHS 2nd Generation))
T1 chain: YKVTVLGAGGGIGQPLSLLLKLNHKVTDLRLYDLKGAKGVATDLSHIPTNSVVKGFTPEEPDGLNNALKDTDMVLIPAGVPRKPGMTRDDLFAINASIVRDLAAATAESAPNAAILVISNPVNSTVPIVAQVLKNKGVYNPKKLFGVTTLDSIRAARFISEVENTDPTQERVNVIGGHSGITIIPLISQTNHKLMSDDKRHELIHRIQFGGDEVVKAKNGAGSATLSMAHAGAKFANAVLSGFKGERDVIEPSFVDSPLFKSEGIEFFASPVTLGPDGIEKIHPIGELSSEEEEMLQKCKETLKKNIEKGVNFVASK

T2: recombinant CIT1 (without the mitochondrial targeting signal, C-terminal 6x His tag) (S. cerevisiae, UniProt P00890 38-479)
T2 construct: By the primers and the NdeI/XhoI sites of pET21b the chain should begin with an added Met and carry LE before the His6; also called recombinant yeast CIT1; pET-cit1; source: E. coli BL21 (DE3), pET21b, purified (Ni-NTA His SpinTrap columns)
T2 sequence (looked up): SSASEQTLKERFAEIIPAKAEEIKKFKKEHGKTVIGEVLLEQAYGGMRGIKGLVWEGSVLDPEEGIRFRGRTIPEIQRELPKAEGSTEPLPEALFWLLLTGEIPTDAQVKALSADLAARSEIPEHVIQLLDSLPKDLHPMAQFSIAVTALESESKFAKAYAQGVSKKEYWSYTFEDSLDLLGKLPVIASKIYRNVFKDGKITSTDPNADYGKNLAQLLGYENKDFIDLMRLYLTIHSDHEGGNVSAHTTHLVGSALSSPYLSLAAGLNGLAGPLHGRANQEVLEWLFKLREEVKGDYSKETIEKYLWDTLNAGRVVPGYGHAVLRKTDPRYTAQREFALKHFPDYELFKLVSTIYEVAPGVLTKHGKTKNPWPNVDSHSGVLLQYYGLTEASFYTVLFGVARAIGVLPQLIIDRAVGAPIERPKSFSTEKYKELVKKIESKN


Legend:
[1] = target: T1, recombinant MDH1 (without the …); assay: MST; control (no metabolite)
[2] = target: T1, recombinant MDH1 (without the …); assay: MST; 10 mM malate
[3] = target: T1, recombinant MDH1 (without the …); assay: MST; pH 6.8
[4] = target: T1, recombinant MDH1 (without the …); assay: MST; 10 mM fumarate
[5] = target: T2, recombinant CIT1 (without the …); assay: MST; fluorescently labeled MDH1 as the target, CIT1 as the ligand (two-fold serial dilution of 80 µM, 16 concentrations); Monolith NT.115, room temperature; 50 mM Tris, 150 mM NaCl, 10 mM MgCl2, 5 mM DTT, 0.05% Tween-20; pH 6.4; details: both partners purified
[6] = target: T2, recombinant CIT1 (without the …); assay: MST; fluorescently labeled MDH1 as the target, CIT1 as the ligand (two-fold serial dilution of 80 µM, 16 concentrations); Monolith NT.115, room temperature; 50 mM Tris, 150 mM NaCl, 10 mM MgCl2, 5 mM DTT, 0.05% Tween-20; pH 7.2; details: both partners purified
[7] = target: T2, recombinant CIT1 (without the …); assay: MST; fluorescently labeled MDH1 as the target, CIT1 as the ligand (two-fold serial dilution of 80 µM, 16 concentrations); Monolith NT.115, room temperature; 50 mM Tris, 150 mM NaCl, 10 mM MgCl2, 5 mM DTT, 0.05% Tween-20; pH 6.0; details: both partners purified

Row | Binder | Kd [1] [nM] | Kd [2] [nM] | Kd [3] [nM] | Kd [4] [nM] | Kd [5] [nM] | Kd [6] [nM] | Kd [7] [nM]
1 | recombinant CIT1 (without the mitochondrial targeting signal, C-terminal 6x His tag) (enzyme) SSASEQTLKERFAEIIPAKAEEIKKFKKEHGKTVIGEVLLEQAYGGMRGIKGLVWEGSVLDPEEGIRFRGRTIPEIQRELPKAEGSTEPLPEALFWLLLTGEIPTDAQVKALSADLAARSEIPEHVIQLLDSLPKDLHPMAQFSIAVTALESESKFAKAYAQGVSKKEYWSYTFEDSLDLLGKLPVIASKIYRNVFKDGKITSTDPNADYGKNLAQLLGYENKDFIDLMRLYLTIHSDHEGGNVSAHTTHLVGSALSSPYLSLAAGLNGLAGPLHGRANQEVLEWLFKLREEVKGDYSKETIEKYLWDTLNAGRVVPGYGHAVLRKTDPRYTAQREFALKHFPDYELFKLVSTIYEVAPGVLTKHGKTKNPWPNVDSHSGVLLQYYGLTEASFYTVLFGVARAIGVLPQLIIDRAVGAPIERPKSFSTEKYKELVKKIESKN | 6070 | 367 | 2720 | 288 | – | – | –
2 | recombinant MDH1 (without the mitochondrial targeting signal, C-terminal 6x His tag), fluorescently labeled (enzyme, S. cerevisiae, UniProt P17505 18-334, looked up, fluorescent label (Protein Labeling Kit RED-NHS 2nd Generation), By the primers and the NdeI/XhoI sites of pET21b the chain should begin with an added Met and carry LE before the His6; also called recombinant yeast MDH1; labeled MDH1; source: E. coli BL21 (DE3), pET21b, purified (Ni-NTA His SpinTrap columns)) YKVTVLGAGGGIGQPLSLLLKLNHKVTDLRLYDLKGAKGVATDLSHIPTNSVVKGFTPEEPDGLNNALKDTDMVLIPAGVPRKPGMTRDDLFAINASIVRDLAAATAESAPNAAILVISNPVNSTVPIVAQVLKNKGVYNPKKLFGVTTLDSIRAARFISEVENTDPTQERVNVIGGHSGITIIPLISQTNHKLMSDDKRHELIHRIQFGGDEVVKAKNGAGSATLSMAHAGAKFANAVLSGFKGERDVIEPSFVDSPLFKSEGIEFFASPVTLGPDGIEKIHPIGELSSEEEEMLQKCKETLKKNIEKGVNFVASK | – | – | – | – | 223 | 3480 | 33
